Paper PMC7610980

Biological target: bat RaTG13 spike (S) glycoprotein ectodomain (bat coronavirus RaTG13)
Test: BLI

Sequence of human ACE2 ectodomain (residues 19-615) (Q9BYF1 19-615): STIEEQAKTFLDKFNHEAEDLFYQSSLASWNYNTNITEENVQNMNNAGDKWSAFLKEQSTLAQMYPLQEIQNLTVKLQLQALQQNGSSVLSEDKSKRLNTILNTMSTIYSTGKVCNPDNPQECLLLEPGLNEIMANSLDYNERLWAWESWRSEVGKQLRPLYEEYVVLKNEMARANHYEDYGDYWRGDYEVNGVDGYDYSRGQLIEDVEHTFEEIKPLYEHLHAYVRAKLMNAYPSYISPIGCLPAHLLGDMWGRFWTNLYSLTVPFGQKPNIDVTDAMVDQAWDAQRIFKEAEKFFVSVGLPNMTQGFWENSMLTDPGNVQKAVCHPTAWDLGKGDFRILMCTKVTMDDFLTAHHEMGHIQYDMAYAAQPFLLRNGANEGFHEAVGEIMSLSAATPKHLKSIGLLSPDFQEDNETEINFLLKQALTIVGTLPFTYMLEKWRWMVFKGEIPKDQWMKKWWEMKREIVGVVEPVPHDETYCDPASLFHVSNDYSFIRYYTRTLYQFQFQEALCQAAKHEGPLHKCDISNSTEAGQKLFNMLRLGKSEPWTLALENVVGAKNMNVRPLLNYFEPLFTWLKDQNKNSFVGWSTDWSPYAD

## human ACE2 ectodomain (residues 19-615) (from UniProt Q9BYF1-1 19-615) (receptor)
  Kd: > 40 µM
